# Experimental data: the RNAGym collection of RNA variant scans (doi:10.7554/elife.80360)
# B1: Hammerhead Ribozyme (parent)
# chain: ACCGGAUGUGCUUUCCGGUCUGAUGAGUCCGUGAGGACGAAACAG
# Variants of: B1
# Test: self-cleavage, relative activity (ratio to wild type); higher = more cleavage; co-transcriptional
row,Variant,self-cleavage
1,U24G G45C,0.536
2,C15U G27C,0.749
3,C29G G45U,0.458
4,G25U U28C,0.274
5,U9C U32G,0.9
6,C3G A37G,0.334
7,G5U C11G,0.815
8,U24C A42U,0.286
9,U12G G17A,0.738
10,C15A G27C,0.435
11,C29A A44U,0.407
12,C29A A44C,0.323
13,G8U G36A,0.658
14,C20A G45A,0.396
15,U14C G17U,0.561
16,G22C G31C,0.37
17,A23C G33U,0.659
18,U21G A41U,0.333
19,G5C G36U,0.33
20,C16G U19A,0.253
21,C11U G31C,0.937
22,C15U G31A,0.781
23,C11A C29U,1.08
24,C11A C29G,0.809

row,Variant,self-cleavage
1,G8C G39A,0.347
2,U7A G25A,0.32
3,C3A G18U,0.324
4,C3G G35C,0.248
5,G39U A44G,0.676
6,G5C G22A,0.263
7,U13G C20U,0.435
8,G10A G39C,0.45
9,U13C U14C,0.862
10,U32C G39U,0.369
11,U7C U9C,1.28
12,G5C U32C,0.559
13,U9C A42G,0.332
14,U7C,1.05
15,C2U U21A,0.962
16,U19C U21G,0.221
17,C29A A34C,0.494
18,A34C A40G,0.334
19,C11G U14C,0.867
20,C2U A6C,0.429
21,U32G A41C,0.459
22,G25C C38G,0.304
23,U7A C20A,0.298
24,C3U A41C,0.404

row,Variant,self-cleavage
1,G5U G18C,0.33
2,G27U C43G,0.268
3,G10C U12G,1.09
4,U21C C30A,0.494
5,G8U U13A,1.1
6,U19C U32A,0.551
7,G8C U9G,0.771
8,A26U G35C,0.377
9,G36U,0.625
10,G18U G35A,0.555
11,C11A G17C,0.506
12,C11A G45A,0.778
13,G25U G36U,0.334
14,C11U G25U,0.318
15,G8C A34G,1.11
16,C2U U32A,0.97
17,C15A G22C,0.3
18,G4A U28A,0.364
19,U9A A34G,0.751
20,U7G C43U,0.389
21,C3G G17C,0.617
22,U7A A44U,0.375
23,C43G G45A,0.327
24,A1C U24G,0.368

row,Variant,self-cleavage
1,C20G G33C,0.327
2,G36C A41C,0.364
3,G18U U19A,0.34
4,U19A G35C,0.422
5,C15G A44G,0.834
6,C11U A37U,0.665
7,G17U A34G,0.604
8,U13G A44C,0.567
9,U21A U28A,0.46
10,U13G C16G,0.899
11,A1C U9C,0.394
12,U21G U28A,0.4
13,A6C G27U,0.38
14,A6U C29G,0.468
15,G25A A44G,0.64
16,G5U A23U,0.356
17,G17A G39U,0.316
18,U14G A37U,0.566
19,C15U G36C,0.356
20,G4U U28C,0.266
21,A34C G45U,0.515
22,G17C C38U,0.453
23,G36U C38U,0.674
24,A37G G39A,0.362

row,Variant,self-cleavage
1,U9A A23G,0.324
2,G8A G39C,0.298
3,G22U A23G,0.297
4,U13G A23U,0.405
5,C16A A44G,1.35
6,U9G U13A,1.93
7,A6U A42G,0.307
8,U24G G39A,0.327
9,A23C G31C,0.533
10,U32C G45U,0.635
11,G4U A37C,0.329
12,U13C A42G,0.232
13,C3U G45A,0.468
14,C3U G45C,0.579
15,U14G C15U,0.581
16,U7A U21C,0.628
17,A44C G45U,0.721
18,U19A C29G,0.295
19,U19A C29A,0.332
20,U28A A37C,0.398
21,U21C A41U,0.469
22,U12G G25A,0.316
23,G5U A42C,0.327
24,C2G G36C,0.336

row,Variant,self-cleavage
1,C15U A26C,0.424
2,A23C G25U,0.298
3,A6U U28G,0.373
4,A1U A41C,0.378
5,C2G U21A,0.314
6,U24A G39C,0.496
7,C11A A34G,0.996
8,C11A A34U,0.771
9,A6C C38U,0.67
10,U13A A34U,1.46
11,C30G G36C,0.441
12,U12C A37G,0.915
13,G18U A42U,0.339
14,G8C C15A,0.837
15,G22U G25A,0.269
16,G4C C11U,0.331
17,C2G G39U,0.268
18,G35U G36U,0.463
19,U12G G45C,0.676
20,U12A G39U,0.361
21,A41G G45U,0.407
22,C43A G45A,0.515
23,G8A U28G,1.16
24,C2G G10C,0.38

row,Variant,self-cleavage
1,C2U G4C,0.397
2,U9C U12A,1.15
3,U19C A40C,0.305
4,G17C A26C,0.355
5,G10A G33U,1.01
6,G10U G22C,0.351
7,G17A G22A,0.315
8,G5A C43G,0.312
9,G33A C38U,0.995
10,U24G G31U,1.13
11,C3G C15A,0.298
12,C20A A40C,0.33
13,C2G A40C,0.352
14,C3U A37C,0.566
15,G22C U28G,0.293
16,G18U G22U,0.378
17,U28A U32G,0.306
18,G5C G8U,0.693
19,C3U U21G,0.558
20,C3G G22A,0.304
21,G17U G39C,0.348
22,G10U,1.07
23,U19A C20G,0.31
